Results reported in US20170267750A1, “Method of Treating Ovarian and Renal Cancer Using Antibodies Against T Cell Immunoglobulin Domain and Mucin Domain 1 (TIM-1) Antigen” (Celldex Therapeutics, Inc., priority 2005, published 2017).

T1: TIM-1 antigen (Homo sapiens, UniProt Q96D42, DEL158-162/L179P)
T1 construct: V5; His; made in house; host or cells: baculovirus expression system (pMelV5His vector / pBlueBac)
T1 sequence (Q96D42 with tags, fused parts or gaps DEL158-162/L179P): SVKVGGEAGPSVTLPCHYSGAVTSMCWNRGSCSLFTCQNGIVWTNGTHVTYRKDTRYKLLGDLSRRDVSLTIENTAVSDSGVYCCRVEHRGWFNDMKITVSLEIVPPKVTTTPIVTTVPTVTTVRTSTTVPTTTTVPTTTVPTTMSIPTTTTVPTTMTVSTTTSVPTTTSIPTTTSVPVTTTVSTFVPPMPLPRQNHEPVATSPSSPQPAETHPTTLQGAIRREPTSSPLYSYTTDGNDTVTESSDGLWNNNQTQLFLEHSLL

B1: mAb 2.59: fully human IgG4 kappa anti-TIM-1 monoclonal antibody; heavy chain SEQ ID NO: 34, light chain SEQ ID NO: 36 (antibody, listed as Homo Sapiens, V domains shown)
VH: NNNNNQSGPRLVKPSQTLSLTCTVSGGSISSDGYYWSWIRQHPGKGLEWIGYIYYSGSTFYNPSLKSRVAISVDTSKNQFSLKLSSVTAADTAVYYCARESPHSSNWYSGFDCWGQGTLVTVSSA
VL: NNNNTQSPDFQSVTPKEKVTITCRASQSIGSRLHWYQQKPDQSPKLLIKYASQSFSGVPSRFSGSGSGTDFTLTINSLEAEDAATYYCHQSSNLPFTFGPGTKVDIKR
B2: mAb 1.37: fully human IgG2 kappa anti-TIM-1 monoclonal antibody; heavy chain SEQ ID NO: 6, light chain SEQ ID NO: 8 (antibody, listed as Homo Sapiens, V domains shown)
VH: EVQLVESGGGLVQPGGSLRLSCAASGFTFTNYWMSWVRQAPGKGLEWVANIQQDGSEKYYVDSVRGRFTISRDNAKNSLYLQMNSLRAEDSAVYYCARWDYWGQGTLVTVSSA
VL: DIVMTQTPLSSTVILGQPASISCRSSQSLVHSDGNTYLNWLQQRPGQPPRLLIYMISNRFSGVPDRFSGSGAGTDFTLKISRVEAEDVGVYYCMQATESPQTFGQGTKVEIKR
B3: mAb 2.54: fully human IgG4 kappa anti-TIM-1 monoclonal antibody; heavy chain SEQ ID NO: 26, light chain SEQ ID NO: 28 (antibody, listed as Homo Sapiens, V domains shown)
VH: QVQLEQSGGGVVQPGRSLRLSCAASGFTFTNYGLHWVRQAPGKGLDWVAVIWYDGSHKFYADSVKGRFTISRDNSKNTLFLQMNSLRAEDTAVYYCTRDLDYWGQGTLVTVSSA
VL: ETQLTQSPGTLSLSPGERVTLSCRASQSVSNNYLAWYQQKPGQAPRLLIYGASSRATGIPDRFSGSGSGTDFTLTISRLEPEDCAECYCQQYGSSLPLTFGGGTKVEIKR
B4: mAb 2.61: fully human IgG4 kappa anti-TIM-1 monoclonal antibody; heavy chain SEQ ID NO: 38, light chain SEQ ID NO: 40 (antibody, listed as Homo Sapiens, V domains shown)
VH: QVQLVEAGGGVVQPGRSLRLSCAASGFTFRSYGMHWVRQAPGKGLKWVAVIWYDGSNKYYTDSVKGRFTISRDNSKNTLYLQMNSLRAEDTAVYYCVRDYYDNSRHHWGFDYWGQGTLVTVSSA
VL: DIQMTQSPSSRCASVGDRVTITCRASQGIRNDLAWYQQKPGKAPKRLIYAASSLQSGVPSRFSGSRSGTEFTLTISSLQPEDFAAYYCLQHNSYPPSFGQGTKLEIKR
B5: mAb 2.76: fully human IgG4 kappa anti-TIM-1 monoclonal antibody; heavy chain SEQ ID NO: 46, light chain SEQ ID NO: 48 (antibody, listed as Homo Sapiens, V domains shown)
VH: NNNNEQSGGGVVQPGRSLRLSCAASGFTFSSYGMYWVRQAPGKGLEWVAVIWYDGSNKYYADSVKGRFTISRDNSKNTLYLQMNSLRAEDTAVYYCARDFYDSSRYHYGMDVWGQGTTVTVSSA
VL: NNNNTQCPLSLPVTPGEPASISCRSSQSLLDSDDGNTYLDWYLQKPGQSPQLLIYTVSYRASGVPDRFSGSGSGTDFTLKISRVEAEDVGVYYCMQRIEFPITFGQGTRLEIKR
B6: mAb 2.56: fully human IgG4 kappa anti-TIM-1 monoclonal antibody; heavy chain SEQ ID NO: 30, light chain SEQ ID NO: 32 (antibody, listed as Homo Sapiens)
heavy: QVQLVESGGGVVQPGRSLRLSCAASGFTFSSYGMHWVRQAPGKGLEWVAVIWYDGSHKYYADSVKGRFTISRDNSKNTLYLQMNSLRAEDTAVYYSARDYYDTSRHHWGFDCWGQGTLVTVSSA
light: EIVMTQTPLSLPVTPGEPASISCRSSQSLLDSEDGNTYLDWYLQKPGQSPQLLIYTLSHRASGVPDRFSGSGSGTDFTLKISRVEAEDVGVYCCMQRVEFPITFGQGTRLEIKR
B7: mAb 2.70: fully human IgG4 kappa anti-TIM-1 monoclonal antibody; heavy chain SEQ ID NO: 42, light chain SEQ ID NO: 44 (antibody, listed as Homo Sapiens, V domains shown)
VH: QVQLVESGGGVVQPGRSLRLSCAASGFIFSRYGMHWVRQAPGKGLKWVAVIWYDGSNKLYADSVKGRFTISRDNSKNTLYLQMNSLRAEDTAVYYCARDYYDNSRHHWGFDYWGQGTLVTVSSA
VL: DIVMTQTPLSLPVTPGEPASISCRSSRSLLDSDDGNTYLDWYLQKPGQSPQLLIYTLSYRASGVPDRFSGSGSGTDFTLKISRVEAEDVGVYYCMQRVEFPITFGQGTRLEIKR

Columns and labels:
TIM-1 antigen [1] = molecular target: T1, TIM-1 antigen; test: Epitope binning (antigen binding competition, Luminex); details: Table 9
Description: Certain antibodies, described herein were “binned” in accordance with the protocol described in U.S. Patent Application Publication No. 20030157730, published on Aug. 21, 2003, entitled “Antibody Categorization Based on Binding Characteristics.”
MxhIgG conjugated beads were prepared for coupling to primary antibody. The volume of supernatant needed was calculated using the following formula: (n+10)×50 μL (where n=total number of samples on plate). Where the concentration was known, 0.5 μg/mL was used. Bead stock was gently vortexed, then diluted in supernatant to a concentration of 2500 of each bead per well or 0.5×10^5/mL and incubated on a shaker in the dark at room temperature overnight, or 2 hours if at a known concentration of 0.5 μg/mL. Following aspiration, 50 μL of each bead was added to each well of a filter plate, then washed once by adding 100 μL/well wash buffer and aspirating. Antigen and controls were added to the filter plate 50 μL/well then covered and allowed to incubate in the dark for 1 hour on shaker. Following a wash step, a secondary unknown antibody was added at 50 μL/well using the same dilution (or concentration if known) as used for the primary antibody. The plates were then incubated in the dark for 2 hours at room temperature on shaker followed by a wash step. Next, 50 μL/well biotinylated mxhIgG diluted 1:500 was added and allowed to incubate in the dark for 1 hour on shaker at room temperature. Following a wash step, 50 μL/well Streptavidin-PE was added at 1:1000 and allowed to incubate in the dark for 15 minutes on shaker at room temperature. Following a wash step, each well was resuspended in 80 μL blocking buffer and read using a Luminex system.

TIM-1 antigen [2] = molecular target: T1, TIM-1 antigen; test: BiaCore affinity determination of anti-TIM-1 mAb; format: binding; details: 25° C.; mAb captured on chip; TIM-1 antigen injected at 292 nM
Description: BiaCore® analysis was used to determine binding affinity of anti-TIM-1 antibody to TIM-1 antigen. The analysis was performed at 25° C. using a BiaCore® 2000 biosensor equipped with a research-grade CMS sensor chip. A high-density goat […] antibody surface over a CMS BiaCore® chip was prepared using routine amine coupling. Antibody supernatants were diluted to ˜5 μg/mL in HBS-P running buffer containing 100 μg/mL BSA and 10 mg/mL carboxymethyldextran. The antibodies were then captured individually on a separate surface using a 2 minute contact time, and a 5 minute wash for stabilization of antibody baseline.
TIM-1 antigen was injected at 292 nM over each surface for 75 seconds, followed by a 3-minute dissociation. Double-referenced binding data were obtained by subtracting the signal from a control flow cell and subtracting the baseline drift of a buffer inject just prior to the TIM-1 injection. TIM-1 binding data for each mAb were normalized for the amount of mAb captured on each surface. The normalized, drift-corrected responses were also measured.

Molecule | Bin (TIM-1 antigen [1]) | Kd (TIM-1 antigen [2])
B1 | 1 | –
B2 | 4 | –
B3 | 7 | 3.35 nM
B4 | 4 | –
B5 | 4 | –
B6 | 5 | 1.1 nM
B7 | 6 | –
